Source: US20130295095A1 (GEORG AUGUST UNIVERSIT T G TTINGEN STIFTUNG FFENTLICHEN …, published 2013)

Molecular target: T1, AβpE3-38 (human, UniProt P05067 674-709, pyroglutamate at position 3 (N-terminal residue))
T1 construct: range 3-38; The range counts on Aβ numbering, not on the APP precursor; also called human AβpE3-38
Experiment: ELISA screening of hybridoma clones
Source text: The AβpE3 oligomere specific antibodies 9D5H6 (IgG2b) and 8C4D2 (IgG1) were generated by immunizing three Balb/c mice with AβpE3-38. After preparation of the lymph nodes cells were fused with the myeloma cell line P3-X63-Ag8. The hybridoma supernatants of mixed clones were screened by ELISA and subcloned. The monoclonal antibodies 9D5 and 8C4 were selected by ELISA against different N-terminal Aβ epitopes. Clones producing signals with AβpE3-38 and AβpE3-42, but no signal with […] were isolated and further characterized. For comparison, Aβ antibodies 4G8 (Aβ epitope 17-24; Covance), W0-2 (Aβ epitope 4-8; The Genetics Company), NT78 (against generic Aβ1-16, Synaptic Systems) and 2-48 (against N-terminal AβpE3, Synaptic Systems; Wirths, O., et al. J Neural Transm 117, 85-96 (2010)) were used. GFAP (rabbit) and IBA1 (rabbit) antisera were from Synaptic Systems and Wako Pure Chemicals respectively. Peptides were purchased from PSL (Heidelberg, Germany), reconstituted as indicated below and immediately frozen until further use.

T1 sequence (P05067 674-709): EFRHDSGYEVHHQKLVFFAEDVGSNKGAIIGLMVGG

B1: PG3-38 9D5H6 (antibody, V domains shown)
VH: QLQQSGAELMKPGASVKISCKATGYTFSSYWIEWVKQRPGHGLEWIGEILPGRGSTHYNEKFKGKATFTADTSSNTAYMQLSSLTSEDSAVYYCARSPITTSDYWGQGTTLTVSS
VL: DVVMTQTPLSLPVSLGDQASISCRSSQSLLHSNGNTYLHWYLQKPGQSPKLLIYKVSNRFSGVPDRFSGSGSGTDFTLKISRVEAEDLGVYFCSQSTHVPLTFGAGT
notes: The printed VH starts at QLQQ and the printed VL ends at FGAGT, so both may be slightly truncated; also called antibody obtainable from hybridoma DSM ACC3056
B1: binds.
